Results on 7 molecules are retold here after patent US20230332164A1 (SYNLOGIC OPERATING, published 2023).

B1: WT mSIRPα (32-373), secreted by SYN2996 (receptor)
chain: VDYKDDDDKQLGGGKELKVTQPEKSVSVAAGDSTVLNCTLTSLLPVGPIKWYRGVGQSRLLIYSFTGEHFPRVTNVSDATKRNNMDFSIRISNVTPEDAGTYYCVKFQKGPSEPDTEIQSGGGTEVYVLAKPSPPEVSGPADRGIPDQKVNFTCKSHGFSPRNITLKWFKDGQELHHLETTVNPSGKNVSYNISSTVRVVLNSMDVHSKVICEVAHITLDRSPLRGIANLSNFIRVSPTVKVTQQSPTSMNQVNLTCRAERFYPEDLQLIWLENGNVSRNDTPKNLTKNTDGTYNYTSLFLVNSSAHREDVVFTCQVKHDQQPAITRNHTVLGLAHSSDQGSMQTFPGNNATHNWNKGELNSKLEGKPIPNPLLGLDSTDPNSSSVDHHHHHH
B2: mCD40L1 (47-260), secreted by SYN3366 (ligand)
chain: VDYKDDDDKQLGGGHRRLDKVEEEVNLHEDFVFIKKLKRCNKGEGSLSLLNCEEMRRQFEDLVKDITLNKEEKKENSFEMQRGDEDPQIAAHVVSEANSNAASVLQWAKKGYYTMKSNLVMLENGKQLTVKREGLYYVYTQVTFCSNREPSSQRPFIVGLWLKPSSGSERILLKAANTHSSSQLCEQQSVHLGGVFELQAGASVFVNVTEASQVIHRVGFSSFGLLKLKGELNSKLEGKPIPNPLLGLDSTDPNSSSVDHHHHHH
B3: mCV1SIRPα, secreted by SYN3159 (receptor)
chain: VDYKDDDDKQLGGSEEELQIIQPDKSVLVAAGETATLRCTITSLFPVGPIQWFRGAGPGRVLIYNQRQGPFPRVTTVSDTTKRNNMDFSIRIGNITPADAGTYYCIKFRKGSPDDVEFKSGAGTELSVRAKPSGSGELGGSGKPIPNPLLGLDSTGSGHHHHHH
notes: also called PhoA-FLAG-CV1sirpα-V5-HIS
B4: mCD40L2 (112-260), secreted by SYN3367 (ligand)
chain: VDYKDDDDKQLGGGMQRGDEDPQIAAHVVSEANSNAASVLQWAKKGYYTMKSNLVMLENGKQLTVKREGLYYVYTQVTFCSNREPSSQRPFIVGLWLKPSSGSERILLKAANTHSSSQLCEQQSVHLGGVFELQAGASVFVNVTEASQVIHRVGFSSFGLLKLKGELNSKLEGKPIPNPLLGLDSTDPNSSSVDHHHHHH
B5: anti-mCD47 scFv, secreted by SYN3161 (scFv)
scFv: QVKLLQSGAALVKPGASVKMSCQASGYSFTDYWVTWVKQSHGQSLEWIGEIYPSNTVTNFNDNFKGKATLTVDKSTSTAYMELSRLTSEDSAIYYCTRIGNSGYRVGWFIYWGQGTLVTVLSGGGGSGGGGSGGGGSDTVLTQSPALAVSPGERVTISCKASESVSSHMHWYQQKPGQQPKLLIYKASNLASGVPARFSGSGSGTDFTLTIDPVEADDTATYFCQQGWNGPFTFGAGTRLELKRADAAGSGELGGSGKPIPNPLLGLDSTGSGHHHHHH
B6: CD47 on mouse CT26 cells (receptor, UniProt Q61735 19-303, looked up)
chain: QLLFSNVNSIEFTSCNETVVIPCIVRNVEAQSTEEMFVKWKLNKSYIFIYDGNKNSTTTDQNFTSAKISVSDLINGIASLKMDKRDAMVGNYTCEVTELSREGKTVIELKNRTVSWFSPNEKILIVIFPILAILLFWGKFGILTLKYKSSHTNKRIILLLVAGLVLTVIVVVGAILLIPGEKPVKNASGLGLIVISTGILILLQYNVFMTAFGMTSFTIAILITQVLGYVLALVGLCLCIMACEPVHGPLLISGLGIIALAELLGLVYMKFVASNQRTIQPPRNR
notes: whole, on cells; also called CD47 on CT26 cells; murine CD47 on CT26 cells
B7: mFD6x2SIRPα, secreted by SYN3160 (receptor)
chain: VDYKDDDDKQLGGSEEEVQIIQPDKSVSVAAGESAILHCTITSLFPVGPIQWFRGAGPARVLIYNQRQGPFPRVTTISETTRRENMDFSISISNITPADAGTYYCIKFRKGSPDTEFKSGAGTELSVRAKPSGGGGSGGGGSEEEVQIIQPDKSVSVAAGESAILHCTITSLFPVGPIQWFRGAGPARVLIYNQRQGPFPRVTTISETTRRENMDFSISISNITPADAGTYYCIKFRKGSPDTEFKSGAGTELSVRAKPSGSGELGGSGKPIPNPLLGLDSTGSGHHHHHH
notes: also called mFD62xSIRPα; FD1x2SIRPα

Test [1] deals with IgG (control coating). Kind of test: ELISA, IgG-coated plate, bacterial supernatant. In general terms: An ELISA detects its analyte on a solid surface through an enzyme-linked reagent.
Test [2] deals with IgG (control coating). Kind of test: ELISA, IgG-coated plate, clarified bacterial supernatant.
In the test “CD47 on mouse CT26 cells” the target is B6. Kind of test: flow cytometry on CT26 cells, 10x concentrated supernatant.
In test [3] the target is T1, recombinant SIRPα (Rndsystems) (mouse, UniProt P97797 32-373, limits assumed).
T1 construct: also called recombinant SIRPalpha; recombinant mSIRPα
T1 sequence (looked up): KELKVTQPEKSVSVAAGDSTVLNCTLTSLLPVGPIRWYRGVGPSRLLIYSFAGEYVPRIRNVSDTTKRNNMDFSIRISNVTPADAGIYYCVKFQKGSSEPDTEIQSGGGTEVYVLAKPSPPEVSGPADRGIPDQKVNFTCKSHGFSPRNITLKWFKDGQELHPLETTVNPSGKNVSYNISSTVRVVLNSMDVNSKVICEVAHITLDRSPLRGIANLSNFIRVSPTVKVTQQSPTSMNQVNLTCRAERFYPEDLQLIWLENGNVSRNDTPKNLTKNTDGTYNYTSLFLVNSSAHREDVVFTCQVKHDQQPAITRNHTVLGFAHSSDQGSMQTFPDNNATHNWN
Kind of test: competition flow cytometry on CT26 cells. On the technique in general: In flow cytometry, cells or beads pass a laser one at a time.
Experimental: Cells were spun down, supernatant was aspirated, pellet was resuspended in 1 ml D-PBS, transferred into chilled assay tubes (1×10\hat{ }6 cells), and washed 3 times in D-PBS. Cells were resuspended in D-PBS with 0.5% BSA, to which the 10 jut of the supernatant (10× concentrated) were added and incubated for 1 hour at 4 C. Supernatant from SYN1557 was used as a baseline negative control. Cells were then resuspended in 0.5 ml PBS, diluted to proper concentration and analyzed on a flow cytometer.

B1 yielded an ELISA signal (unit not given) with IgG (control coating) [1] of 0.056.

The molecule B2 had an ELISA signal (unit not given) with IgG (control coating) [2] of 0.052.

With B3, the binding result with CD47 on mouse CT26 cells was “binds”.

Consider B4, for which the ELISA signal (unit not given) in the test with IgG (control coating) [2] was found to be 0.052.

Turning to B5, in the test with IgG (control coating) [1], the ELISA signal (unit not given) worked out at 0.067.

As to B6, the binding result in test [3] is given as “binds”.

In the case of B7, in the test with CD47 on mouse CT26 cells, the binding result is “binds”.
